Experimental findings from article PMC5511251, “The A2V mutation as a new tool for hindering Aβ aggregation: A neutron and x-ray diffraction study” (Scientific Reports, 2017) are described below.

For the experiment, the target named is T1, Aβ1-28 wild type (human).
T1 construct: amyloid-β (Aβ) residues 1-28, cut from the amyloid β precursor protein (APP); numbers count on: the Aβ peptide (position 2 of Aβ is position 673 of APP); Assembles into fibrils; also called Aβ1-28WT; WT; source: synthetic peptide (Fmoc solid-phase synthesis, purified by reverse-phase HPLC, purity >95%)
In words: neutron diffraction + other: synchrotron X-ray fibre diffraction; peptides or their mixtures dissolved in ddH2O at 10 mg/mL, dried four days at ambient temperature on quartz in a 7 T static magnetic field, re-humidified against 100% D2O for about 14 days; small- and wide-angle patterns. The conditions noted are these: both partners purified.

B1: Aβ1-28A2V (peptide)
peptide: DVEFRHDSGYEVHHQKLVFFAEDVGSNK
notes: amyloid-β (Aβ) residues 1-28 with the naturally occurring A-to-V substitution at position 2 of Aβ (A673V in APP); numbers count on: the Aβ peptide (position 2 of Aβ is position 673 of APP); also called mutated peptide Aβ1-28A2V; source: synthetic peptide (Fmoc solid-phase synthesis, purified by reverse-phase HPLC, purity >95%)
B1: the binding result was “binds”.
